Assay results from US20230110607A1 (IMMUNEONCO BIOPHARMACEUTICALS SHANGHAI, published 2023).

Target: T1, CD24 (human, UniProt P25063 27-59)
T1 construct: whole, on cells; For MCF-7 and REH cells it says only CD24+; also called human CD24; hCD24
T1 chain (looked up): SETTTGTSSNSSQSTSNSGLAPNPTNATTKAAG
Assay: flow cytometry on CD24+ MCF-7 cells, FITC anti-human IgG-Fc secondary
Procedure: CD24⁺ MCF-7 cells in 100 μl culture medium at a cell density of 1×10⁶/ml were incubated with 100 μl serially diluted IMM47H and hIgG-Fc (3-fold dilution, starting at 30 μg/ml), respectively, at 4° C. for 1 h. Cells were washed with cold PBS twice, and then incubated with 100 μl FITC-conjugated secondary antibody against human IgG-Fc (Cat #F9512, Sigma) for 45 min. Cells were washed twice and re-suspended in 200 μl PBS. Then, the cells were subject to FACS analysis using a flow cytometer (Merck Millipore, Guava® easyCyte 5HT).

binding result: binds
B1: IMM47H (antibody, human IgG1, kappa, V domains shown)
VH: DVQLQESGPGLVKPSETLSLTCTVSGYSITSGYSWHWIRQPPGKGLEWIGYIHYSGSTKYNPSLKSRVTISVDTSKNQFSLKLSSVTAADTAVYYCARGADYALDYWGQRTSVTVSS
VL: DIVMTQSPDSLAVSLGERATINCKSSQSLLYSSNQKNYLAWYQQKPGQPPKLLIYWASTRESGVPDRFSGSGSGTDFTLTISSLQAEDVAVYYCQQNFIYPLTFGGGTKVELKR
notes: also called humanized anti-CD24 antibody
